The subject of this assay is transgenic Arabidopsis plants. In kind it is in vivo. The following applies: for level of resistance against Aurora (in words): Aurora 0.01% to 0.5%, compared to control plants; for level of resistance to Strike, more tolerant to treatment as compared to control plants / level of resistance against Strike (in words): Strike 0.01% to 1%; for level of resistance to Strike, more tolerant to treatment as compared to control plants: 5 orders of magnitude. An excerpt:
(SEQ ID NO: 8 was cloned from SEQ ID NO: 1, SEQ ID NO: 9 was cloned from SEQ ID NO: 2, SEQ ID NO: 10 was cloned from SEQ ID NO: 3, SEQ ID NO: 11 was cloned from SEQ ID NO: 4, SEQ ID NO: 12 was cloned from SEQ ID NO: 5, SEQ ID NO: 13 was cloned from SEQ ID NO: 6 SEQ ID NO: 14 was cloned from SEQ ID NO: 7). […] FIG. 1B summarizes the results of the three experiments described hereinabove.

B1: SEQ ID NO: 8: PPO from Aspergillus sp. fused to cTP. Chimeric Protein; cloned from SEQ ID NO: 1 (protein)
chain: MELSLLRPTTQSLLPSFSKPNLRLNVYKPLRLRCSVAGGMRLPCASSRVFRQVRAPLALLSRGQRHAVHTKQFDAAVIGGGITGLTAAYQLSRDPSCSKVTLYEKSPHLGGWLSSEQIPVPGGHVVFEYGPRTLRTSSPSCLPMMDLIMNLDLLDDVLICDKKSPAAQNRYIYYPDHLVRLPFPPTEGLLKTAWTLLMEPLFETFLYSAIFEKPKRAENTHILSRDESVADFVSRRFSPKISENLASAVMAGIFAGDVNRLSAEMAIGYVRELEKRYGSIVDGMMTQRASEMRAMPMDELLALESVAVPSHSDDRYWKSLRAVVSDASVLTLKNGLGQLTDAMAAQLRSSRNVEVVTGTEVTSLSQNPKTQDLTIGFGKNESKTHNRVIATHAPSSLARQIQNTKVGVVPSDTIRDLGQNNYAVTVMVVNLYYEDPDLVPVEGFGYLLPSSVPFEQNPERALGVIFGSQSSEGQDTAPGTKLTVMMGGHLWDGWSESDYPDPDKAIEMAQALLHRHLGIKTAPSVARARLLRDAIPQYTVGHLSRMKELSHSVRSDFHKRLTLAGAWYGTVGIGVVDCIRQGYLASSYGVGSKKLGPGNSRRPWTKHDFHNWELEGGIATSPVRLDNVHVTERQHY
B1: the “level of resistance against Aurora (in words)” value is “very high levels of resistance” and the “level of resistance to Strike, more tolerant to treatment as compared to control plants” value (from here on “level of resistance … compared to control plants”) was “about 10^5”.

B2: SEQ ID NO: 9: PPO from Aspergillus sp. fused to cTP. Chimeric Protein; cloned from SEQ ID NO: 2 (protein)
chain: MELSLLRPTTQSLLPSFSKPNLRLNVYKPLRLRCSVAGGMRLPCASSRAFRQVRAPLALLHRGQRHAVHTKQFDAAVIGGGITGLTAAYQLSRDPSCSKVTLYEKSSHLGGWLSSEQIPVPGGHVVFEYGPRTLRTSSPSCLPMMDLIMNLDLLDDVLICDKKSPAAQNRYIYYPDHLVRLPFPPTEGLLKTAWTLLMEPLFETFLYSAIFEKPKRAENTHILSRDESVADFVSRRFSPKISENLASAVMAGIFAGDVNRLSAEMAIGYVRELEKRYGSIVDGMMTQRASEMRAMPMDELLALESVAVPSHSDDRYWKSLRAVVTDASVLTLKNGLGQLTDAMAAQLRSSRNVEVVTGTEVTSLSQNPKTQDLTIGFGKNESRTHNRVIATHAPSSLARQIQNTKVGVVPSDTIRDLGQNNYAVTVMVVNLYYEDPDLVPVEGFGYLLPSSVPFEQNPERALGVIFGSQSSEGQDTAPGTKLTVIMGGHLWDGWSESDYPDPDKAIEMAQALLHRHLGIKTAPSVARARLLRDAIPQYTVGHLSRMKELSHSVRSDFHKRLTLAGAWYGTVGIGVVDCIRQGYLASSYGVGSKKLGPGNSRRPWTKHDFHNWELEGGIATSPVRFDNVHVTERQHY
Turning to B2, the “level of resistance against Aurora (in words)” value is “very high levels of resistance” and the “level of resistance … compared to control plants” value is given as “about 10^5”.

B3: SEQ ID NO: 10: PPO from Fusarium sp. fused to cTP. Chimeric Protein; cloned from SEQ ID NO: 3 (protein)
chain: MELSLLRPTTQSLLPSFSKPNLRLNVYKPLRLRCSVAGGMSRRRAESTAVALLSSPAKSHLQPPLRRLDGIRSLSTSSALARRRPIVACNYTQSFNNGRTFVSQAKDANIAVLGGGLTGLTAAYYLAKKLPSTAKITLYESSDRLGGWIKTDRVPVDIEGKSGTLSFERGARSLSSLVGNTFRFDDLVLYDLALDLGLAINSPSQQPRYIYYPDHLVPTPPNISIFDMLREPLYLEIIGASLGLGINSLRKRTLPSKDYSVSEWLYAVSNSRKGIGNLASAMMHGIYGGDIHKLSARCVLDRLYWGWYLPNPGLSVRPMPVAEQALLETLGQDKQIQKMALEPRSALVDFGDKGMESLPQALSAALREQPNITIKTGEAVQDVVYNKANQQVHITSSNAKDNSKHNSKVYDKVISTLSAQDIALLAGNKLPSLSTAHSVSVMTVNIWFPQENLKPPGFGYLIPNSVAPELNPEHALGVFFDSDVQTRSKDEPAGTKLFVLMGGHYYDRPDVTPPTEEEAIIQARNLLERHLGIPRDAPAYATANFARECIPQHYVGHQDRLKAAHTELTRNFGGRLAVAGGSFTRIGAVASLRAGYDAATAAKKGLEATGLEYLNDIQQFSVVATSHIPVRHFK
For the molecule B3, the “level of resistance against Aurora (in words)” value is reported as “not against Aurora”; the “level of resistance against Strike (in words)” value is “high levels of resistance”; the “level of resistance … compared to control plants” value is on record as “about 10^5”.

B4: SEQ ID NO: 12: PPO from Fusarium sp. fused to cTP. Chimeric Protein; cloned from SEQ ID NO: 5 (protein)
chain: MELSLLRPTTQSLLPSFSKPNLRLNVYKPLRLRCSVAGGMSRRRAESTAVALLSSPAKSHLQPPLRRLDGIRSLSTSSALARRRPIVACNYTQSFNNGRTFVSQAKDANIAVLGGGLTGLTAAYYLAKKLPSTAKITLYESSDRLGGWIKTDRVPVDIEGKSGTLSFERGARSLSSLVGNTFRFDDLVLYDLALDLGLAINSPSQQPRYIYYPDHLVPTPPNISIFDMLREPLYLEIIGASLGLGINSVRKRTLPSKDYSVSEWLYAVSNSRKGIGNLASAMMHGIYGGDIHKLSARCVLDRLYWGWYLPNPGLSVRPMPVAEQALLETLGQDKQIQKMALEPRSALVDFGDKGMESLPQALSAALREQPNITIKTGEAVQDVVYNKANQQVHITSSNAKDNSKHNSKVYDKVISTLSAQDIALLAGNKLPSLSTAHSVSVMTVNIWFPQENLKPPGFGYLIPNSVAPELNPEHALGVFFDSDVQTRSKDEPAGTKLFVLMGGHYYDRPDVTPPTEEEAIIQARNLLERHLGIPRDAPAYATANFARECIPQHYVGHQDRLKAAHTELTRNFGGRLAVAGGSFTRIGAVASLRAGYDAATAAKKGLEATGLEYLNDIQQFSVVATSQIPVRHFK
Regarding B4, the “level of resistance against Aurora (in words)” value was “not against Aurora”; the “level of resistance against Strike (in words)” value is on record as “high levels of resistance”; the “level of resistance … compared to control plants” value is reported as “about 10^5”.

B5: SEQ ID NO: 1: PPO from Aspergillus sp. Protein. (protein, listed as Aspergillus sp.)
chain: MRLPCASSRVFRQVRAPLALLSRGQRHAVHTKQFDAAVIGGGITGLTAAYQLSRDPSCSKVTLYEKSPHLGGWLSSEQIPVPGGHVVFEYGPRTLRTSSPSCLPMMDLIMNLDLLDDVLICDKKSPAAQNRYIYYPDHLVRLPFPPTEGLLKTAWTLLMEPLFETFLYSAIFEKPKRAENTHILSRDESVADFVSRRFSPKISENLASAVMAGIFAGDVNRLSAEMAIGYVRELEKRYGSIVDGMMTQRASEMRAMPMDELLALESVAVPSHSDDRYWKSLRAVVSDASVLTLKNGLGQLTDAMAAQLRSSRNVEVVTGTEVTSLSQNPKTQDLTIGFGKNESKTHNRVIATHAPSSLARQIQNTKVGVVPSDTIRDLGQNNYAVTVMVVNLYYEDPDLVPVEGFGYLLPSSVPFEQNPERALGVIFGSQSSEGQDTAPGTKLTVMMGGHLWDGWSESDYPDPDKAIEMAQALLHRHLGIKTAPSVARARLLRDAIPQYTVGHLSRMKELSHSVRSDFHKRLTLAGAWYGTVGIGVVDCIRQGYLASSYGVGSKKLGPGNSRRPWTKHDFHNWELEGGIATSPVRLDNVHVTERQHY
As to B5, the “level of resistance against Aurora (in words)” value was “very high levels of resistance” and the “level of resistance … compared to control plants” value is “about 10^5”.

(Values after patent publication US12674174B2, “Protoporphyrinogen oxidase (PPO) resistance plant” (PLANTARC BIO LTD., priority 2022, dated 2026).)
